Assay: soluble on expression in E. coli; label from the status in PepcDB or PDB records

Sequence | soluble on expression in E. coli
MGSDKIHHHHHHMTIELTPPPKKNPQKRSTSATRPPEARSRAALGLSAAAAEGRFALQVCAECQAVQYPPRDACAACIGTDLVWQDISPDGHLLAETTIQTSTKLFFRERAPWRMGSVKLTAGPVVLCHVHGDCTRGGPVKILNRLDKSGQAVLIAIPPERTEHMDDDPQLRAMSANPKHRRILITDAWNPNTPALAKALLEAGAATIFVGEAESWRPHPNRDTLAGMENVDILPLDVTDTASVQTLAGEIGGKTDILINNARFMRPGGVLARGDTGFARDEMEVNYLGLMRLAQAFGPGMCARMADGVNSAAAWVNILSAHALSNAPDYGCFSASNAAAYSLSQSLRGEFRSAGLRVMNVFVGPTDDDWYAPLPPPKVLPTGLARSVVDGLRDGLEDVWCGDIAKDMRDRWRRDAKVLEREMTFGSEGA | not soluble
MVDYDKQMKTWIRSQHLICVGSDFIFETVDQTQLDKFETCIRGMGGRIRTVKAVGNWPMGPRRSFKILQATASVPRPGGEALVTYWAKKGSKTTRYSEISS | soluble
MGSDKIHHHHHHAPKGAEARMIATVDAEQARTLRFLEVMVNQNSGSRNLEGVRRLRDIVVPEFTALGFTSRWIPMERTGRAGHLVLTHKGRQGAKKLLLIGHLDTVFEPDSPFQTYVLNGEKATGPGVGDDKGGIAVILAAVRAMNAAGTLKGASIEVFLTGDEEEAGSPTEVARADLVAAARAADVALDFEGLSRENGRDMGSIARRSSQSWSLTVEAKSGHSSGVWGANAGDGAIYAAAKIVNAFRTELPEPWLTLNVGLIAGGAEAEVAEDNAHVSAQGKTNIIPGEVIARGDLRTLSPEQNRAAMRKMEEIVGRPYPGVTSARIAFSEGYPPMAPTEGNKALLARLNQVNATLGLPEMQPLDPMKRGAGDISFVAEYIDGLVGLGPHSTGDHAPGETVDVPSIWTQAKRAALLMTRLSAEKSAR | not soluble
MSTLQAAAHGRIVQLSRIRKEIADLAKNKRRFIKDFRKIEKCKDIFQFKIIGDGVLYKNMIFTLTLDVNVEYPFKPPYLKFCHNVYHPNVDPVTCELCSPMLLQENWKPETTMEDVLLNLIVLLNEPDLSRPVNIDAAHDYIHNKVEFVKKSTELAKKWN | not soluble
TLPFRIGHGFDLHRLEPGYPLIIGGIVIPHDRGCEAHSDGDVLLHCVVDAILGALGLPDIGQIFPDSDPKWKGAASSVFIKEAVRLMDEAGYEIGNLDATLILQRPKISPHKETIRSNLSKLLGADPSVVNLKAKTHEKVDSLGENRSIAAHTVILLMKK | soluble
MGSDKIHHHHHHMLSAMYLIDAFFSRQNNQFHLEQQSHCVNQIIEQWRYNGQIIGREIPQFVAEQKNQQGLAVRVTCPEQTSLLAEFNNQPVNDALQTAEKCGVSFESFHIVAEDLNSEITATETPAWQLLYTTYLQSCSPLQSGESLQPIPLYKQLKNIPHLAMDLVKWQENWQACDQLQMNGSVLEQQALVQISDTQSTLFKHGYHLTQEIERHSGIPTYYYLYRIGGKSCEAELQSRCPLCKRKWTLSHPLFDFLYFKCDHCRLVSNLSWHWQ | not soluble
MSLTIPDSTPSDFSHEFFGSLDPQALAHPDSIKWQHYGEGVIPMWIADMDFPVAPPILRALEDRLTRGLGYPLGRDDRLIADLQTKWASQGLTDVPADGIHFTPSVVPGLYAGVHGLTEPGDRVVTMTPIYHPFHLAINDLGREVAAAPLREGDTRWEIDWDALERAAEGARLLMLCHPHNPCGRVWDADELARLRELVLAHDLYVISDELHADLRFTDAPFEAFAADPRVRDRTLTVTGPCKAFNTAGLGIGVMVTHDPELLARVQRRVAGLGGHPSALSFTMWRVALEDGGPWLARTVEYLRGNRDFMTAFLRERLPWVRFTVPEATYLAWLDLREHPEAGRIQEFLLEEAKVAVHNGPTFAPGEQGAAYQGFIRVNFATSRAILTEALERMARALDTRQEGHHHHHH | soluble
MFQPEKIDPEEATAAIAEVAYIVTVSDYIGNVIRSLYPQASPKLRTIYSVVDSERFLPGNHPKMQKIRNDIRRAHGLENKTVILFAGRLSRNKGVDKLILALPELAKKFKNLALVIVGSNWFSENDITDYVAYVRALAKRMPVPVVTTGFVPPNEIQNWFAAADLFVCTSQWQEPLARVHYEAMAAGLPIVTTARGGNPEVIFANENGLIVENPEDPSDFANKIAQILSDQSLMRRMGEKGRQLAISIYHWERVASELLEVWEQAEKTEQAVVSEEQAAGMTIEPLKEDATEQLNGPTPKADAKEKVHSKKNAAASSNKTKKGKAKKERAISMEDHQQTAKQKEAAAERTELAKSAPAPKQPQTGRHIKPFTIASGNQQTLDASPKTHLNRKLAQAKHDTKHFTIASSH | not soluble
MSLTDAPDLILHRGLFTTLDRSNPIASAVAISGGRFSAVGHDREVLPLAGPSTKVIDLKGRRVLPGLIDNHLHIIRGGLNFNMELRWDGVRSLADAMNMLKRQVAITPPPQWVRVVGGFTEHQFAEKRLPTIEELNAVAPDTPVFLLHLYDRAILNGAALRAVGYTRDTPEPPGGEITRDANGNPTGLLLAKPNANILYATLAKGPKLPFDYQVNSTRHFMRELNRLGVTGAIDAGGGFQNYPDDYAVIQKLDEEGLLTIRLAYNLFTQKPKGEKDDFLNWTKTSKYKQGNDYFRHNGAGEMLVFSAADFEDFRVPRPDMPPEMEGELEEVVRILVQNKWPWRLHATYDETISRALDVFEKVNQDTPLDGLHWFFDHAETISDRSIDRIAALGGGIAVQHRMAYQGEYFVERYGFGAAEATPPVRRILDSGVKVSAGTDATRVASYNPWVSLSWLVTGRTVGGLRITPQRNCLDRETALRMWTENVTWFSNEEGNKGRVAVGQLADVVVPDRDYFSCSEAEIADTTSLLTMVGGKVVYGAGEFAGLDDSEGHHHHHH | not soluble
MSLQYQVVPVTAFAQNCSIVWCDETMEGIVVDPGGDVKQLAMLIAELGVKVTQLVLTHGHLDHVGGTQSLAQALGGTRVVGPHKADNFWLQGLEGQSKMFGFPLTEAFEPDEWLDDGDVIHFGQQTLQVIHTPGHTPGHVVLFSEAARLAFVGDVLFNGSIGRTDFPQGDFNTLIASIKNKLWPLGSDVTFIPGHGPQSTFGRERASNPFVADEMPLY | not soluble
MIELVIVSRLLEYPDAALWQHQQEMFEAIAASKNLPKEDAHALGIFLRDLTTMDPLDAQAQYSELFDRGRATSLLLFEHVHGESRDRGQAMVDLLAQYEQHGLQLNSRELPDHLPLYLEYLAQLPQSEAVEGLKDIAPILALLSARLQQRESRYAVLFDLLLKLANTAIDSDKVAEKIADEARDDTPQALDAVWEEEQVKFFADKGCGDSAITAHQRRFAGAVAPQYLNITTGGQH | not soluble
MGSDKIHHHHHHMQKRHKDRQCYFNELANTSRSFYIDYVKQFISLSPSTHILEIGCGEGGNLLPFAELGCKVTGIDRAASRIHQAETFFTASGYKGEFTTTDFFNFSSASRYQLILIHDVIEHISNKEEFFRCLSPLLAKRGIIFWGFPSWQMPFGGHQQICHNRFVSSLPFIHLCPGILYRFLLRCFHETPSCIEELSDIKRCRMTIDTFEQLAEKYGYEITDRQLWFINPHYQQKFHLRPRKLYPVLAQLKYIRNYFSTSCFYITRHRELHD | not soluble
MESNFIDWHPADIIAGLRKKGTSMAAESRRNGLSSSTLANALSRPWPKGEMIIAKALGTDPWVIWPSRYHDPQTHEFIDRTQLMRSYTKPKK | soluble
MARGIWGVDSAQVVTDQLFQCVRTELGYPKFWGRYLSEVPNVSEGLTRDEIVRIRNYGVKVLPIYNAFREAVGYANGQVAARNAVFHARRLGIPKNKLLFANIEDFFAVDAAWIAAWVETLYPTGYRPGLYADPTKGDFAAAYCEAVSRNNQVAVQAVIWSAAPRPGTTKEQKAPRYQPAAPPCSANVWVWQYGRDAEVCPVDTNLADRRLLDFLY | soluble
MLRHNVPIRRDLDKIACDHGFDFHVIDNEIYWDESRAYRFTLRQIEEQIEKPTAELHQMCLEIVERAVRDEQSMQQLAIPPLYWDVIAESWRSRDPSLYGRMDFVWCGKDPVKLLEYNADTPTSLYESSYFQWLWLEDARRSGAIPRDADQYNAIQERLIARFSELYSREPLYFCCCEDTDEDRTTVLYLQDCAQQAGQETRFIYIEELGLGVGGVLTDLDDNVIRRAFKLYPLEWMMRDDNGPLLRKRREQWIEPLWKSILSNKGLLPLLWRFFPGHPNLLPAWFEGEKSLAAPGESSVRKPIYSREGGNVTIFDERQNVIDHADGDYADEPMIYQAFQPLPRFGDSYTLIGSWIIDDEASGMGIREDNTLITKDTSRFVPHYIAG | not soluble
MSLMTEMQQRAQLHRQIWKIADEVRGAVDGWDFKQYVLGTLFYRFISENFTDYMQAGDSSIDYAAMPDSIITPEIKDDAVKVKGYFIYPGQLFCNIAAEAHQNEELNTKLKEIFTAIESSASGYPSEQDIKGLFDDFDTTSSRLGSTVADKNKRLAAVLKGVAELDFGNFENHHIDLFGDAYEYLISNYAANAGKSGGEFFTPQSVSKLIARLAVHGQEKVNKIYDPACGSGSLLLQAKKQFDEHIIEEGFFGQEINHTTYNLARMNMFLHNVNYNQFHIELGDTLTNPKLKDSKPFDAIVSNPPYSINWIGSDDPTLINDDRFAPAGVLAPKSKADFAFILHALNYLSGRGRAAIVSFPGIFYRGGAEQKIRQYLVEGNYVETVIALAPNLFYGTGIAVNILVLSKHKDNTDIQFIDASGFFKKETNNNVLIEEHIAEIVKLFADKADVPHIAQNAAQQTVKDNGYNLAVSSYVEAEDTREIIDIKQLNAEIGETVAKIERLRREIDEVIAEIEAEGHHHHHH | soluble
MITELRPNPYQPRKHFNKEAIQELSASIKEHGILQPLIARKSIKGYEIVAGERRYRAAKEAGLEKVPAVVRQLNEQQMMEFALLENLQREDLNPMEEAMAYQMLMNELNVTQEQLAKCLGKSRPYIANYTRLLSLPSFVQDMIANGQLSMAHGRTLLTIKDEEQLKSLLKRIEKEGLNVRQLEKIVQEINQSVSRETKQVKKERNIFFIERETFLREKFGTDVKIKETKKEKGKIEIEFFNKEDLNRILELLAQKN | not soluble
MTTSNIKALIPSELRKVWEFILDIENYDAWRSDLSKTEVVSDKQFIEYTKDGYPTTFTVTLVEPYRRWEFDMQNSNMSGHWIGVFTDKGNETEIDFTECVEAKKMLMKPFVKSYLKKQQAQFVADIMKNFSLEHHHHHH | soluble
MSLNILIIAFEGIEGSGKTSHLEATKKYLEKEGYGVVTFGLQMSKLIGDRIAQVKRNIIFERRTLFLAYVTDLADQIENYVKPSIDSGFIALADGYTLTLTSWGLTRGLEKEWIDDVLSMLPKPSISLPLISTPDEIVRRIIKKRGYLDPLETGIDICIKEDTFEAYIDYINRFQEALMSISSRENIIYTDKEFDEVQKEIVRRIDNITEGHHHHHH | soluble
MAGASETYTHTLTDVPIDIKYDSDDYFISGYSYGADVYMSSVNRVKLDSEINEDTRKFKVVADLTNMKPGTHKVPLKVVNLPSGVNATVSPTTITVTMGKKKTLEHHHHHH | soluble
MDNMKRNMPYLPSFKLTDFDIKTLVQPILCPRSQEIQYYETLSKISTFAQSNINNDVFFSIIDNTFIQTLALQQIRFSLEKYPHQLHSFNIKLSCLADEDFVRELLSFHGAKFALEISELDCYTESKEIRENLSVLQANNIEIWLDDYHRNNKLANMSLGNILWDRIKIDKSFLKHADQESIQALEYFLAPFCLHGLIFEGAEYIEHHKMLKTSQSLTQGYYYFRPSPINSLDSKPRVAESIKLSYAG | not soluble

From the DeepSol protein solubility set
